Columns and labels:
[1] = target: H5 hemagglutinin (HA) of H5N1 influenza A virus, strain not stated (influenza A virus (H5N1), strain not stated); experiment: cross-inhibition of binding to HA; competitor: FLA3.14
[2] = target: H5 hemagglutinin (HA) of H5N1 influenza A virus, strain not stated (influenza A virus (H5N1), strain not stated); experiment: cross-inhibition of binding to HA; competitor: FLD194
[3] = target: hemagglutinin of H5N1 clade 2.2 strain WS/Mong/244/05 (influenza A virus WS/Mong/244/05 (H5N1)); experiment: cell-based or functional assay
[4] = target: hemagglutinin of H5N1 clade 2.3 strain Anhui/1/05 (influenza A virus Anhui/1/05 (H5N1)); experiment: cell-based or functional assay
[5] = target: hemagglutinin of A/Vietnam/1203/04 (H5N1) (influenza A virus A/Vietnam/1203/04 (H5N1)); experiment: cell-based or functional assay
[6] = target: hemagglutinin of H5N1 clade 2.2 strain TY/TY/1/05 (influenza A virus TY/TY/1/05 (H5N1)); experiment: cell-based or functional assay
[7] = target: hemagglutinin of H5N1 clade 1 strain VN/1194.04 (influenza A virus VN/1194.04 (H5N1)); experiment: cell-based or functional assay
[8] = target: hemagglutinin of H5N1 clade 1 strain A/Hong Kong/213/03 (influenza A virus A/Hong Kong/213/03 (H5N1)); experiment: cell-based or functional assay
[9] = target: hemagglutinin of A/Indonesia/5/05 (H5N1, clade 2) (influenza A virus A/Indonesia/5/05 (H5N1)); experiment: cell-based or functional assay
[10] = target: hemagglutinin of H5N1 clade 1 strain HK/491/97 (influenza A virus HK/491/97 (H5N1)); experiment: cell-based or functional assay
[11] = target: H5 hemagglutinin (HA) of H5N1 influenza A virus, strain not stated (influenza A virus (H5N1), strain not stated); experiment: cross-inhibition of binding to HA; competitor: FLD20.19

Binder | Inhibition of binding (%) [1] | Inhibition of binding (%) [2] | IC50, neutralisation of retroviral pseudotypes [3] | IC50, neutralisation of retroviral pseudotypes [4] | IC50, neutralisation of retroviral pseudotypes [5] | Reciprocal neutralising titre of culture supernatant (reciprocal titre) [5] | IC50, neutralisation of retroviral pseudotypes [6] | IC50, neutralisation of retroviral pseudotypes [7] | IC50, neutralisation of retroviral pseudotypes [8] | IC50, neutralisation of retroviral pseudotypes [9] | Reciprocal neutralising titre of culture supernatant (reciprocal titre) [9] | Reciprocal neutralising titre of culture supernatant (reciprocal titre) [10] | Inhibition of binding (%) [11]
FLD20.19 (antibody, V domains shown) VH: QVQLVQSGAEVKKPGSSVTVSCKASGGTFSNYGISWVRQAPGQGLDWMGGIIPLFGTANYAQKFQGRVTITADESTSSSNMELSSLRSEDTAVYYCARDVHNYDFLTGYPLHLYGMDVWGQGTTVTVSS VL: DIQMTQSPSSLSASVGDRVTITCRASQSISTYLNWYQQKPGIPPKLLINVASSLQSGVPSRFSGSGSGTDFTLTISSLQPEDFASYYCQQTYSSPPTFGQGTKVEIK | 0% | 0% | 0.004 µg/mL | 0.104 µg/mL | 0.016 µg/mL | 181 | 0.01 µg/mL | 0.013 µg/mL | 0.01 µg/mL | 0.077 µg/mL | 813 | 181 | 100%
FLD93 (antibody, V domains shown) VH: WWQLVQSGAEVKKPGSSVKVSCKASGGTFSSYDISWVRQAPGQGLEWMGGIIPIYGTANYAQKFQGRVTITADESTSTAYMELSSLRSEDTAVYYCARAGGDSSGYYGALGRFFQHWGQGTLVTVSS VL: VIWMTQSPSLLSASTGDRVTISCRMSQGISSYLAWYQQKPGKAPELLIHTAYTLKSGVPSRFSGSGSGKDFTLTISGLQSEDFATYYCQQYYSFPYTFGQGTKVEIK | 0% | 0% | 0.011 µg/mL | – | 0.048 µg/mL | 40 | 0.013 µg/mL | 0.022 µg/mL | 0.011 µg/mL | 0.059 µg/mL | 406 | 20 | 100%
FLD122 (antibody, V domains shown) VH: QFQLVQSGPEVKKPGTSVKVSCKASGYTSTTYGISWVRQVPGQGLEWMGWINPYNGNPHYGQKFQGRVTLTRDTSTNTAYLEILSLRSDDTAVYYCARDGWGQQLVPYYFDYWGQGTLVTVSS VL: DIVMTQSPLSLPVTPGEPASISCRASQSLLHSNGYNYLDWYLQKPGQSPQLLIQLGSTRASGVPDRFSGSGSGTDFTLEISRVEAEDVGVYYCMQALQLPLAFGQGTRLEIK | 65% | 100% | 0.006 µg/mL | 0.019 µg/mL | 0.005 µg/mL | 40 | 0.008 µg/mL | 0.006 µg/mL | 0.002 µg/mL | 0.004 µg/mL | 362 | 161 | 100%
FLD127 (antibody, V domains shown) VH: QVQLVESGGGVVQPGRSLRLSCAASGFTFSSYGMHWVRQAPGKGLEWVAVIWYDGDNKYYGDSVKGRFTISRDNSKNTLFLQMNSLRAEDTAVYYCAKDTADHGDYVDLGFFDAWGQGTLVTVSS VL: DIQMTQSPSSVSASVGDRVTITCRASQDVSTWLAWYQLKPGKAPKLLIYAASSLQSGVPSRFSGSGSGTDFTLTVSSLQPEDFATYYCQQANSFPFTFGPGTKVDIK | 0% | 0% | – | – | 0.013 µg/mL | 81 | – | 0.019 µg/mL | 0.75 µg/mL | – | < 8 | 102 | 100%
FLA5.10 (antibody, V domains shown) VH: QVQLVQSGAEVKEPGSAMKVSCKASGGTFSSDAFCWVRQAPGRGLEWMGGIIPVFQTANYGPNFQGRVTISADVYTTTLYLELSGLTSEDTAVYFCARSGDGYNYYFPLWGQGTLVTVSS VL: DIQMTQSPSTLSGSVGDRVTITCRASQNIGPWLAWYQQESGKAPKLLISRASILESGVPSRFSGTGTGTEFTLTISSLQPDDFATYYCQHYNAYWGTFGQGTKVEIN | 0% | 100% | – | – | 0.024 µg/mL | – | – | 0.026 µg/mL | 0.0025 µg/mL | – | – | – | 100%

Reference: patent US20100278834A1
